Reference: article PMC13311836, “Clinically observed RASA1 missense mutants exhibit diverse RasGAP protein behaviors in vitro” (The Journal of Biological Chemistry, 2026)
[ ]: non-standard residue; d: D form. pY = N[C@@H](Cc1ccc(OP(=O)(O)O)cc1)C(=O)O

Key:
[1] = molecular target: T1, RasGAP SH2-SH3-SH2 construct (residues 174 to 444), R194C (human, UniProt P20936 174-444, R194C | C236S | C261S | C372S | C402S); assay: ITC; replicate, Figure S7 panel E
T1 sequence: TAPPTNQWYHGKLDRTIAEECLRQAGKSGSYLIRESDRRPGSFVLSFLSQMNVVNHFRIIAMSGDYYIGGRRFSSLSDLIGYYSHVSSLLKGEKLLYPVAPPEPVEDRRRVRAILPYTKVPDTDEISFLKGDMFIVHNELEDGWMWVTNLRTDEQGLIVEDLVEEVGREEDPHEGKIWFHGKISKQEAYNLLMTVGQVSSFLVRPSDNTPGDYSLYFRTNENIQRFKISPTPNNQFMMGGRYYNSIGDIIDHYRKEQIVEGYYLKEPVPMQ

[2] = molecular target: T2, RasGAP SH2-SH3-SH2 construct (residues 174 to 444), WT (human, UniProt P20936 174-444, C236S | C261S | C372S | C402S); assay: ITC; replicate, Figure S7 panel B
T2 sequence: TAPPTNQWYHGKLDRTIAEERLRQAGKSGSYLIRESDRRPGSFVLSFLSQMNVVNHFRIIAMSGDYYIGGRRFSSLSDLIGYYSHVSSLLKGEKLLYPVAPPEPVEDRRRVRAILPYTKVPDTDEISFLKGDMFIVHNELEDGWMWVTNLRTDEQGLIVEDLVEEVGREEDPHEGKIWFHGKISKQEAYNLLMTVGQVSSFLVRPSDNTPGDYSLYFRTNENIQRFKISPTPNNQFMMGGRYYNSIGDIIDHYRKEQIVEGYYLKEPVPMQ

[3] = molecular target: T2, RasGAP SH2-SH3-SH2 construct (residues …); assay: ITC; average
[4] = molecular target: T1, RasGAP SH2-SH3-SH2 construct (residues …); assay: ITC; average
[5] = molecular target: T3, RasGAP SH2-SH3-SH2 construct (residues 174 to 444), R427Q (human, UniProt P20936 174-444, C236S | C261S | C372S | C402S | R427Q); assay: ITC; average
T3 sequence: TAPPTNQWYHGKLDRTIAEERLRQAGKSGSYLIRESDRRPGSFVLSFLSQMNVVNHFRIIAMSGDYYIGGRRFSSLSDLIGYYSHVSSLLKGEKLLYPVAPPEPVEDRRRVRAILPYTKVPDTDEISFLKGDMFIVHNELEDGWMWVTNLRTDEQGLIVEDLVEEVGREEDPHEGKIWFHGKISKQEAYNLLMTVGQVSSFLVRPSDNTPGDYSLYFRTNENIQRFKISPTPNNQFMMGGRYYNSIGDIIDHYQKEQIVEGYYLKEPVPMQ

[6] = molecular target: T1, RasGAP SH2-SH3-SH2 construct (residues …); assay: ITC; replicate, Figure S7 panel D
[7] = molecular target: T2, RasGAP SH2-SH3-SH2 construct (residues …); assay: ITC; replicate, Figure S7 panel A
[8] = molecular target: T3, RasGAP SH2-SH3-SH2 construct (residues …); assay: ITC; replicate, Figure S7 panel G
[9] = molecular target: T1, RasGAP SH2-SH3-SH2 construct (residues …); assay: ITC; replicate, Figure S7 panel C
[10] = molecular target: T4, RasGAP SH2-SH3-SH2 construct (residues 174 to 444), R194C (human, UniProt P20936 174-444, R194C | C236S | C261S | C372S | C402S); assay: ITC; about 25 μM peptide in the syringe titrated into about 5 μM RasGAP SH2-SH3-SH2 in the cell; 25 °C; 250 mM NaCl, 20 mM Tris pH 8, 1 mM TCEP; Independent model; settings: both partners purified
T4 construct: human RasGAP (p120RasGAP, RASA1), UniProt P20936, residues 174-444, with C236S, C261S, C372S, C402S and the cancer-associated N-SH2 mutation R194C; also called p120RasGAP SH2-SH3-SH2 R194C; source: E. coli Rosetta (DE3), purified (Ni-NTA, TEV cleavage, anion exchange, SEC); not shown: His6, N-terminal, cleaved
T4 sequence (looked up): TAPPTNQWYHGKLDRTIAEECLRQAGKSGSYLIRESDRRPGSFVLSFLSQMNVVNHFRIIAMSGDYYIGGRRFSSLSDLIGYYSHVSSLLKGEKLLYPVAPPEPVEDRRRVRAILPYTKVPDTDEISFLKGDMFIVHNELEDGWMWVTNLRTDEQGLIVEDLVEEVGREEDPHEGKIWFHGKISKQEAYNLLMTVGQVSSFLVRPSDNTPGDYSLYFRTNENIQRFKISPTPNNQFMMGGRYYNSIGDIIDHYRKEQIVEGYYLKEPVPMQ

[11] = molecular target: T5, RasGAP SH2-SH3-SH2 construct (residues 174 to 444), R427Q (human, UniProt P20936 174-444, C236S | C261S | C372S | C402S | R427Q); assay: as above; settings: both partners purified
T5 construct: human RasGAP (p120RasGAP, RASA1), UniProt P20936, residues 174-444, with C236S, C261S, C372S, C402S and the cancer-associated C-SH2 mutation R427Q; also called p120RasGAP SH2-SH3-SH2 R427Q; source: E. coli Rosetta (DE3), purified (Ni-NTA, TEV cleavage, anion exchange, SEC); not shown: His6, N-terminal, cleaved
T5 sequence (looked up): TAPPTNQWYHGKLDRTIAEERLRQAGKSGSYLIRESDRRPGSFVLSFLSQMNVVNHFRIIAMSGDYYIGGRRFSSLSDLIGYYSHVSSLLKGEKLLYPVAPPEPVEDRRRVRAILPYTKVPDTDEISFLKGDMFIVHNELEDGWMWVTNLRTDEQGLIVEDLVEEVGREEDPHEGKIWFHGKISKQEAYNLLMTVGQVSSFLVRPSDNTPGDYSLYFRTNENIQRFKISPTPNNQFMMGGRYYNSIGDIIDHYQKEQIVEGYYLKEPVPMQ

[12] = molecular target: T6, RasGAP SH2-SH3-SH2 construct (residues 174 to 444), WT (human, UniProt P20936 174-444, C236S | C261S | C372S | C402S); assay: as above; settings: both partners purified
T6 construct: also called p120RasGAP SH2-SH3-SH2; RASA1; source: E. coli Rosetta (DE3), purified (Ni-NTA, TEV cleavage, anion exchange, SEC); not shown: His6, N-terminal, cleaved
T6 sequence (looked up): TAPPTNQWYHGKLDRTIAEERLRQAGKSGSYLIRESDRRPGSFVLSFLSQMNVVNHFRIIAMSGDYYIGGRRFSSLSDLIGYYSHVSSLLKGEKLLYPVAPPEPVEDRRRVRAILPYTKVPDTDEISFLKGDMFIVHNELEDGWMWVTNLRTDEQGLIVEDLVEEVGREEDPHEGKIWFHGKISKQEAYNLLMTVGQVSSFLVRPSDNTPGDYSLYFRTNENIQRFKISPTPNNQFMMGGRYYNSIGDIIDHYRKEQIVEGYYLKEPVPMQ

[13] = molecular target: T3, RasGAP SH2-SH3-SH2 construct (residues …); assay: ITC; replicate, Figure S7 panel F

- Kd [1]: 1.2 nM
- Kd [2]: 3.59 nM
- Kd [3]: 5.04 nM
- Kd [4]: 4.03 nM
- Kd [5]: 5.11 nM
- Kd [6]: 7.23 nM
- Kd [7]: 6.49 nM
- Kd [8]: 2.08 nM
- Kd [9]: 3.65 nM
- binding result [10]: binds
- binding result [11]: binds
- binding result [12]: binds
- Kd [13]: 8.14 nM
B1: p190RhoGAP phosphopeptide, residues 1083 to 1111 (pY1087, pY1105) (peptide)
peptide: Ac-DPSD[pY]AEPMDAVVKPRNEEENI[pY]SVPHDS-NH2
notes: p190RhoGAP (ARHGAP35), UniProt Q9NRY4, residues 1083-1111, 29 amino acids; also called p190RhoGAP peptide; ARHGAP35 peptide; source: synthetic peptide, bought: GenScript
